From publication PMC5886543, “A staphylococcal anti-sigma factor possesses a single-domain, carries different denaturant-sensitive regions and unfolds via two intermediates” (PLoS ONE, 2018)

Biological target: the molecule itself
Test: cross-linking; rRsbW 10 uM in buffer B (20 mM phosphate pH 8.0, 100 mM NaCl, 5% glycerol), 0.1% glutaraldehyde, 2 min, 25 C; SDS-13.5% PAGE; no denaturant

B1: rRsbW, a recombinant S. aureus RsbW (enzyme, Staphylococcus aureus Newman, UniProt A6QIR1 1-159, looked up)
chain: MQSKEDFIEMRVPASAEYVSLIRLTLSGVFSRAGATYDDIEDAKIAVSEAVTNAVKHAYKENNNVGIINIYFEILEDKIKIVISDKGDSFDYETTKSKIGPYDKDENIDFLREGGLGLFLIESLMDEVTVYKESGVTISMTKYIKKEQVRNNGERVEIS
notes: RsbW of Staphylococcus aureus Newman, UniProt A6QIR1; 480 bp insert amplified from genomic DNA with primers rsbWF (begins at the ATG) and rsbWR; native RsbW 17.92 kDa, rRsbW 21.74 kDa. numbers count on: rRsbW with its 36 N-terminal extra residues (RsbW residue 1 is rRsbW residue 37); Surmised: the 36 extra residues are those that pET28a adds before its EcoRI site; also called anti-sigma factor; …
stoichiometry N: 2
